First the molecules themselves.
B1: SCARA5 (parent)
chain: VTEDLRLKDWEHSIALRNISLAKG
B2: KIAA0774 (parent)
chain: FEDEVKRLGWQQQAELQELEERLQ
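Also: lentivirally expressed fusions sorted by FACS into six bins by GFP to DsRed ratio, PSI derived from sequencing read proportions per bin multiplied by bin number.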

The first data set covers variants of B1. Nature of the data set: protein stability index of a GFP-peptide fusion (GPS, HEK-293T) (PSI 1-6); higher = more stable. The note with it: c terminus: a fixed tail appended.
Take FTEDLRLKDWEHSIALRNISLAKG [V1F]: the protein stability index came out at 2.81.

DTEDLRLKDWEHSIALRNISLAKG [V1D]: the protein stability index is 3.75.

In the case of LTEDLRLKDWEHSIALRNISLAKG [V1L], the protein stability index amounted to 3.26.

On to GTEDLRLKDWEHSIALRNISLAKG [V1G], for which the protein stability index is 3.15.

In the case of ITEDLRLKDWEHSIALRNISLAKG [V1I], the protein stability index came out at 3.54.

In the case of ATEDLRLKDWEHSIALRNISLAKG [V1A], the protein stability index stood at 3.77.

In the case of CTEDLRLKDWEHSIALRNISLAKG [V1C], the protein stability index turned out to be 2.72.

Take HTEDLRLKDWEHSIALRNISLAKG [V1H]: the protein stability index was determined as 3.89.

For the variant ETEDLRLKDWEHSIALRNISLAKG [V1E], the protein stability index stood at 3.98.

For the variant KTEDLRLKDWEHSIALRNISLAKG [V1K], the protein stability index turned out to be 3.34.

Take MTEDLRLKDWEHSIALRNISLAKG [V1M]: the protein stability index worked out at 3.5.

Variants of B2 are the subject of the next data set. The description is as above. The note with it: c terminus: a fixed tail appended.
For FEDEVKRLGWQQQAELQELEEREQ [L23E], the protein stability index was determined as 4.65.

In the case of FEDEVKRLGWQQQAELQELEERQQ [L23Q], the protein stability index turned out to be 4.05.

Consider FEDEVKRLGWQQQAELQELEERSQ [L23S], for which the protein stability index amounted to 4.91.

For FEDEVKRLGWQQQAELQELEERTQ [L23T], the protein stability index worked out at 4.84.

FEDEVKRLGWQQQAELQELEERKQ [L23K]: the protein stability index worked out at 4.16.

In the case of FEDEVKRLGWQQQAELQELEERYQ [L23Y], the protein stability index worked out at 4.51.

As to FEDEVKRLGWQQQAELQELEERHQ [L23H], the protein stability index was 4.53.

Regarding FEDEVKRLGWQQQAELQELEERCQ [L23C], the protein stability index amounted to 4.14.

As for FEDEVKRLGWQQQAELQELEERGQ [L23G], the protein stability index was 4.58.

Turning to FEDEVKRLGWQQQAELQELEERIQ [L23I], the protein stability index was found to be 3.97.

With FEDEVKRLGWQQQAELQELEERFQ [L23F], the protein stability index is 4.09.

Turning to FEDEVKRLGWQQQAELQELEERPQ [L23P], the protein stability index worked out at 5.48.

Regarding FEDEVKRLGWQQQAELQELEERRQ [L23R], the protein stability index turned out to be 4.58.

As to FEDEVKRLGWQQQAELQELEERWQ [L23W], the protein stability index was 3.88.

Regarding FEDEVKRLGWQQQAELQELEERMQ [L23M], the protein stability index worked out at 4.03.

On to FEDEVKRLGWQQQAELQELEERDQ [L23D], for which the protein stability index came out at 5.21.

Regarding FEDEVKRLGWQQQAELQELEERVQ [L23V], the protein stability index is 4.65.

FEDEVKRLGWQQQAELQELEERNQ [L23N]: the protein stability index turned out to be 4.42.

Turning to FEDEVKRLGWQQQAELQELEERAQ [L23A], the protein stability index was 4.08.

As for FEDEVKRLGWQQQAELQELEEDLQ [R22D], the protein stability index was found to be 5.9.

Turning to FEDEVKRLGWQQQAELQELEEELQ [R22E], the protein stability index came out at 5.78.

With FEDEVKRLGWQQQAELQELEEILQ [R22I], the protein stability index amounted to 4.06.

In the case of FEDEVKRLGWQQQAELQELEEFLQ [R22F], the protein stability index stood at 4.62.

In the case of FEDEVKRLGWQQQAELQELEELLQ [R22L], the protein stability index was 4.13.

For the variant FEDEVKRLGWQQQAELQELEEVLQ [R22V], the protein stability index came to 3.77.

Consider FEDEVKRLGWQQQAELQELEECLQ [R22C], for which the protein stability index was 4.48.

Consider FEDEVKRLGWQQQAELQELEEQLQ [R22Q], for which the protein stability index was found to be 4.95.

As to FEDEVKRLGWQQQAELQELEEPLQ [R22P], the protein stability index turned out to be 5.33.

FEDEVKRLGWQQQAELQELEEMLQ [R22M]: the protein stability index came out at 4.04.

As for FEDEVKRLGWQQQAELQELEEYLQ [R22Y], the protein stability index was 4.24.

Regarding FEDEVKRLGWQQQAELQELEEHLQ [R22H], the protein stability index was determined as 4.88.

FEDEVKRLGWQQQAELQELEEGLQ [R22G]: the protein stability index worked out at 5.26.

On to FEDEVKRLGWQQQAELQELEEWLQ [R22W], for which the protein stability index turned out to be 4.31.

In the case of FEDEVKRLGWQQQAELQELEENLQ [R22N], the protein stability index came out at 5.69.

As for FEDEVKRLGWQQQAELQELEEKLQ [R22K], the protein stability index came to 3.85.

As to FEDEVKRLGWQQQAELQELEESLQ [R22S], the protein stability index was determined as 5.01.

For the variant FEDEVKRLGWQQQAELQELEETLQ [R22T], the protein stability index is 4.83.

For FEDEVKRLGWQQQAELQELEEALQ [R22A], the protein stability index was determined as 4.99.

For the variant FEDEVKRLGWQQQAELQRLEERLQ [E18R], the protein stability index stood at 2.74.

FEDEVKRLGWQQQAELQILEERLQ [E18I]: the protein stability index came out at 1.74.

For the variant FEDEVKRLGWQQQAELQWLEERLQ [E18W], the protein stability index was 2.4.

Consider FEDEVKRLGWQQQAELQQLEERLQ [E18Q], for which the protein stability index worked out at 3.91.

For FEDEVKRLGWQQQAELQLLEERLQ [E18L], the protein stability index is 2.63.

Regarding FEDEVKRLGWQQQAELQKLEERLQ [E18K], the protein stability index came to 4.41.

Consider FEDEVKRLGWQQQAELQVLEERLQ [E18V], for which the protein stability index was 3.84.

In the case of FEDEVKRLGWQQQAELQNLEERLQ [E18N], the protein stability index turned out to be 3.94.

Consider FEDEVKRLGWQQQAELQALEERLQ [E18A], for which the protein stability index was 3.84.

FEDEVKRLGWQQQAELQCLEERLQ [E18C]: the protein stability index was determined as 3.17.

As to FEDEVKRLGWQQQAELQMLEERLQ [E18M], the protein stability index came to 2.89.

FEDEVKRLGWQQQAELQDLEERLQ [E18D]: the protein stability index came to 4.61.

With FEDEVKRLGWQQQAELQPLEERLQ [E18P], the protein stability index came to 4.72.

Turning to FEDEVKRLGWQQQAELQHLEERLQ [E18H], the protein stability index came out at 3.37.

In the case of FEDEVKRLGWQQQAELQGLEERLQ [E18G], the protein stability index came to 4.68.

As for FEDEVKRLGWQQQAELQSLEERLQ [E18S], the protein stability index is 4.7.

Consider FEDEVKRLGWQQQAELQTLEERLQ [E18T], for which the protein stability index was 4.47.

FEDEVKRLGWQQQAELQFLEERLQ [E18F]: the protein stability index worked out at 2.13.

As to FEDEVKRLGWQQQAELQYLEERLQ [E18Y], the protein stability index was found to be 2.69.

Turning to FEDEVKRLGWQQQAELQEYEERLQ [L19Y], the protein stability index amounted to 4.14.

For FEDEVKRLGWQQQAELQEFEERLQ [L19F], the protein stability index amounted to 4.12.

Turning to FEDEVKRLGWQQQAELQEKEERLQ [L19K], the protein stability index is 3.24.

Turning to FEDEVKRLGWQQQAELQEQEERLQ [L19Q], the protein stability index turned out to be 4.17.

As for FEDEVKRLGWQQQAELQEWEERLQ [L19W], the protein stability index amounted to 3.92.

In the case of FEDEVKRLGWQQQAELQEMEERLQ [L19M], the protein stability index was 4.42.

For the variant FEDEVKRLGWQQQAELQENEERLQ [L19N], the protein stability index turned out to be 5.2.

As to FEDEVKRLGWQQQAELQEVEERLQ [L19V], the protein stability index was found to be 4.53.

With FEDEVKRLGWQQQAELQEHEERLQ [L19H], the protein stability index was found to be 4.08.

Take FEDEVKRLGWQQQAELQEIEERLQ [L19I]: the protein stability index was determined as 4.27.

For the variant FEDEVKRLGWQQQAELQESEERLQ [L19S], the protein stability index is 4.39.

With FEDEVKRLGWQQQAELQETEERLQ [L19T], the protein stability index is 4.65.

For the variant FEDEVKRLGWQQQAELQEDEERLQ [L19D], the protein stability index was determined as 5.22.

In the case of FEDEVKRLGWQQQAELQEPEERLQ [L19P], the protein stability index amounted to 5.42.

Turning to FEDEVKRLGWQQQAELQEAEERLQ [L19A], the protein stability index came out at 3.48.

FEDEVKRLGWQQQAELQEGEERLQ [L19G]: the protein stability index was determined as 5.4.

In the case of FEDEVKRLGWQQQAELQEREERLQ [L19R], the protein stability index amounted to 3.68.

As for FEDEVKRLGWQQQAELQECEERLQ [L19C], the protein stability index amounted to 4.43.

As to FEDEVKRLGWQQQAELQEEEERLQ [L19E], the protein stability index is 5.22.

Consider FEDEVKRLGWQQQAELQELMERLQ [E20M], for which the protein stability index stood at 3.81.

Consider FEDEVKRLGWQQQAELQELNERLQ [E20N], for which the protein stability index amounted to 4.32.

As for FEDEVKRLGWQQQAELQELWERLQ [E20W], the protein stability index is 3.05.

Take FEDEVKRLGWQQQAELQELRERLQ [E20R]: the protein stability index was determined as 3.87.

For the variant FEDEVKRLGWQQQAELQELIERLQ [E20I], the protein stability index was found to be 3.74.

For FEDEVKRLGWQQQAELQELDERLQ [E20D], the protein stability index was determined as 4.84.

On to FEDEVKRLGWQQQAELQELLERLQ [E20L], for which the protein stability index turned out to be 3.38.

These data come from the supplement of paper PMC10567573.
